Reference: the supplement of paper PMC9732359
± gives the uncertainty stated by the source.

Experiment: protein stability index of a GFP-peptide fusion (yeast GPS) (PSI 1-4); higher = more stable; sorted into four equal gates, so the index is relative within each strain
Details: doa10∆
Method in brief: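 Tiled 17-residue yeast protein peptides were fused downstream of GFP in a plasmid that also expresses Cherry, and the pooled library was carried in yeast. Mid-log cultures in leucine-free medium were sorted into four equal gates by GFP/Cherry fluorescence ratio, and plasmids from each gate were PCR-amplified and Illumina-sequenced, with reads assigned to strains by barcodes. The protein stability index for each peptide was each gate's read frequency times its gate number, summed.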
Sequence KYAQDGAGIERELARIK [RPL3] has a protein stability index of 3.54 ± 0.2.
Work on KYIGEGSRMVRELFVMA [RPT6] yielded a protein stability index of 2.24 ± 0.063.

Same assay, conditions: pdr5∆
KLLKIPKFISEALAFTS [YDL116W/NUP84] showed a protein stability index of 2.46 ± 0.086.
KLLKVCLTMFEDRNESV [ECM29] showed a protein stability index of 1.99 ± 0.27.
For KLLSLLRSKTSAGRIES [SIR4], the protein stability index was 2.17 ± 0.087.
Work on KLMDEDSVATVIEVIET [YJR042W/NUP85] yielded a protein stability index of 3.02 ± 0.16.
With KLNQKYDIVKFLTVSKL [GRR1] the protein stability index was 1.99 ± 0.03.
KLQENRTLLTEEIEPKL [SMC2] gave a protein stability index of 3.29 ± 0.18.
Sequence KLQGLYENIPIYATFLN [YDL116W/NUP84] has a protein stability index of 1.25 ± 0.058.
Work on KLQSWDKVSSCFPQYVN [NNF1] yielded a protein stability index of 1.94 ± 0.09.
KLRDHEPDLESQISKAE [SMC4] showed a protein stability index of 1.31 ± 0.21.
KLSDIFLSKPSKALYPD [SNF2] gave a protein stability index of 2.84 ± 0.049.
Work on KLVRDAFALAKEKAPTI [RPT5] yielded a protein stability index of 2.49 ± 0.09.
KLVTYIVKFKQKEEGRS [YLR335W/NUP2] gave a protein stability index of 3.1 ± 0.067.
Work on KLYDAKRYTSEGTRNRF [YMR129W/POM152] yielded a protein stability index of 3.15 ± 0.087.
KMATDNKINSRNSWNFA [BRN1] gave a protein stability index of 2.94 ± 0.12.
KMDFSSKEGQYKAKIKE [YIL149C/MLP2] gave a protein stability index of 3.27 ± 0.071.
In the case of KMLNEFVKKTSEEIDSL [SMC2], the protein stability index is reported as 3.19 ± 0.15.
With KMLSCAGADRLQQGMRG [RPL10] the protein stability index was 3.28 ± 0.13.
KNDLFVIWSEDNDEKLI [RPO21] showed a protein stability index of 2.55 ± 0.096.
In the case of KNEKLKFQETLLRQKIE [ISW2], the protein stability index is reported as 1.37 ± 0.13.
Sequence KNGVIPEESKGSFKYIT [SWP82] has a protein stability index of 3.09 ± 0.067.
Sequence KNIPKTRYNRDYMLSMA [SNU114] has a protein stability index of 2.4 ± 0.054.
Work on KNKENNTFTWNHSLQHQ [RPN4] yielded a protein stability index of 2.34 ± 0.096.
In the case of KNLQRESCEDILDLKEF [RTT102], the protein stability index is reported as 3.31 ± 0.13.
Work on KNNNGDEKNKNNNEDNE [MED2] yielded a protein stability index of 3.17 ± 0.11.
With KNNSSIRNVIMSASNAN [SRB8] the protein stability index was 2.13 ± 0.053.
KNPHDIIEGINAGEIEI [RPL12A] showed a protein stability index of 2.44 ± 0.075.
Work on KNQLRDWIRFVSIRQNQ [RPL22B] yielded a protein stability index of 1.64 ± 0.061.
For KNSRVELQKIYDRHQSS [SMC4], the protein stability index was 3.01 ± 0.15.
KNYDATDKPFSSTQDVI [CSI1] gave a protein stability index of 2.96 ± 0.1.
In the case of KPKAVARKSKEEREAAA [RPC53], the protein stability index is reported as 3.12 ± 0.1.
In the case of KPLADLRPLFTRYELYI [YLR335W/NUP2], the protein stability index is reported as 2.04 ± 0.04.
With KPNNTANTGGGLFGANS [YGL172W/NUP49] the protein stability index was 3.28 ± 0.089.
With KPNQTIMVLDASIGQAA [SRP54] the protein stability index was 2.65 ± 0.075.
For KPSFSFGVPNSSKNETS [YLR335W/NUP2], the protein stability index was 1.64 ± 0.082.
In the case of KPYVDRFAFSVIWELDD [DIS3], the protein stability index is reported as 1.98 ± 0.047.
Sequence KQDCVDWFTYSYFYRRI [BRR2] has a protein stability index of 1.32 ± 0.032.
KQDEKKSSELELQKLVH [SMC2] showed a protein stability index of 3.5 ± 0.097.
In the case of KQENSSRFTNVSVIAPE [YMR153W/NUP53], the protein stability index is reported as 2.54 ± 0.055.
In the case of KQFVVDVLHPNRANVSK [RPS24A], the protein stability index is reported as 3.24 ± 0.082.
With KQHAVLMLGSVNLPGGI [RRP4] the protein stability index was 2.17 ± 0.058.
In the case of KQQEQLEQQKQPTGLLK [YMR153W/NUP53], the protein stability index is reported as 3.12 ± 0.14.
Sequence KQRAGTASFIPLDTIET [SMC1] has a protein stability index of 2.82 ± 0.064.
Work on KQREIVKAFLSIFEDAI [NUT1] yielded a protein stability index of 1.65 ± 0.071.
With KQRFQGCNNLIKNISNR [ARP9] the protein stability index was 2.88 ± 0.048.
Sequence KQRKNPRRIAWTVLFRK [RPL24A] has a protein stability index of 2.27 ± 0.1.
KQVLDVDPVYKDVAKPT [FAS2] gave a protein stability index of 2.99 ± 0.058.
With KRAEKAARKAEKAKSAG [RPL24B] the protein stability index was 2.48 ± 0.051.
KRAFTKKVASANATAAE [RPL16A] showed a protein stability index of 2.69 ± 0.06.
With KRCMDDLNPLKTLNLFK [RPO31] the protein stability index was 2.99 ± 0.074.
Sequence KRFLILQGEVENIAQMK [SMC4] has a protein stability index of 2.98 ± 0.14.
For KRIESLQKDLQRQKTYV [SMC1], the protein stability index was 3.2 ± 0.13.
Work on KRIKGLEFSALSAADIV [RPO31] yielded a protein stability index of 3.15 ± 0.076.
KRLLGTAFKSSPFGGSS [RPS23A] showed a protein stability index of 2.61 ± 0.045.
With KRLNFSFVGDYMHDTEL [GRR1] the protein stability index was 1.89 ± 0.073.
KRPGKLSDYIPGPYPNE [CYT1] gave a protein stability index of 3.22 ± 0.06.
For KRPRSRTLTAVHDKVLE [RPS7B], the protein stability index was 2.99 ± 0.13.
With KRPTPPSFTFGGSTTNN [YOR098C/NUP1] the protein stability index was 3.03 ± 0.048.
Work on KRRFGELMDRTGLKLYS [RPP1] yielded a protein stability index of 2.98 ± 0.12.
KRSMDAEQLGHASKRHK [RPP1] gave a protein stability index of 2.79 ± 0.056.
In the case of KRSQKKHKKKHLKHENA [RPB4], the protein stability index is reported as 2.96 ± 0.052.
Sequence KRTIRIKTQQHILPEVP [TAF14] has a protein stability index of 2.02 ± 0.049.
Sequence KRVDFSGRTVISPDPNL [RPO31] has a protein stability index of 2.65 ± 0.11.
KSAISNNFRESDIIILK [SIR4] gave a protein stability index of 2.56 ± 0.065.
In the case of KSFYSTATGAASKSGKL [CYT1], the protein stability index is reported as 2.62 ± 0.1.
Sequence KSGRINGFHGRLGDLGV [SMC4] has a protein stability index of 3.43 ± 0.093.
KSMASAFGVSVAFLDND [RPN7] gave a protein stability index of 3.08 ± 0.093.
KSMGRKCFDDIEPHIFD [YCG1] showed a protein stability index of 3.07 ± 0.084.
Sequence KSMLSKPETLSIGKNPF [SWI3] has a protein stability index of 2.91 ± 0.054.
KSMSILNSFVNDIFERI [HTB1] gave a protein stability index of 3.18 ± 0.13.
For KSSFVKESAVISKQKSK [SMC1], the protein stability index was 2.34 ± 0.046.
Work on KSSLYSAQDLLDKHERK [YIL149C/MLP2] yielded a protein stability index of 3.01 ± 0.075.
KSSPISNEAAKPSFSFP [YOR098C/NUP1] showed a protein stability index of 2.93 ± 0.045.
In the case of KSTYRTPNFDDVLKENN [RIP1], the protein stability index is reported as 1.45 ± 0.12.
For KSVEKTMIKKTTLVTRR [SMC3], the protein stability index was 3.19 ± 0.12.
Work on KTAIEGSYIDKKCPFTG [RPS11A] yielded a protein stability index of 3.37 ± 0.075.
For KTAPIQESFVPNSERSG [YOR098C/NUP1], the protein stability index was 2.42 ± 0.11.
Work on KTAQTLDENLNSLSSNL [YJL041W/NSP1] yielded a protein stability index of 2.29 ± 0.055.
In the case of KTATVKINKKLNKAGKP [RPL38], the protein stability index is reported as 3.21 ± 0.11.
KTFEIKEIKTNEYVIKT [YMR129W/POM152] showed a protein stability index of 2.25 ± 0.089.
With KTIQINNEKVVQYLRSV [YML031W/NDC1] the protein stability index was 3.24 ± 0.12.
KTKKEKGPNEEEKKKEH [RPN2] gave a protein stability index of 3.32 ± 0.16.
KTLTEEVTKSSHVENLE [YIL149C/MLP2] gave a protein stability index of 2.94 ± 0.053.
Work on KTTNTTPSFSFGAKSDE [YJL041W/NSP1] yielded a protein stability index of 3.24 ± 0.082.
KTVAVDSVFEQNEMIDA [RPL3] gave a protein stability index of 2.75 ± 0.12.
Sequence KTVQSMTQRAIQSAESI [SWI3] has a protein stability index of 1.8 ± 0.079.
Sequence KTYALESINNVVDQLWS [RPN2] has a protein stability index of 2.9 ± 0.059.
Sequence KVDATPEESKPINLQNG [YLR335W/NUP2] has a protein stability index of 2.95 ± 0.079.
For KVDSPDDPFMTKSGATT [GAL11], the protein stability index was 2.63 ± 0.071.
In the case of KVFDCGDNIVMSANGFA [PRE7], the protein stability index is reported as 2.92 ± 0.12.
Sequence KVFVPPKSKSLPNEMSQ [RPO31] has a protein stability index of 3.14 ± 0.12.
For KVGAEMMMQQQLKNVQL [MED2], the protein stability index was 2.6 ± 0.085.
For KVGIWPYFDYIFNDILA [YJL039C/NUP192], the protein stability index was 1.96 ± 0.071.
Work on KVKKPLKYLSVEEVIKL [PRE7] yielded a protein stability index of 2.63 ± 0.054.
Sequence KVLINDQLSTISMILRN [SWI1] has a protein stability index of 2.79 ± 0.062.
With KVLKSGSGVDSSKLQLT [RRP42] the protein stability index was 2.94 ± 0.1.
With KVLQLLRLTRINSGTFV [RPL7A] the protein stability index was 1.62 ± 0.093.
Work on KVSAREKSAYKFFHNGM [FAS2] yielded a protein stability index of 3.39 ± 0.14.
KVSSAEYYAKKRAFTKK [RPL16A] showed a protein stability index of 3.32 ± 0.099.
With KVVKTPGGILRAQHVKK [RPL34A] the protein stability index was 2.83 ± 0.077.
KWPEYVRVQRQKKILSI [RPL8A] showed a protein stability index of 1.5 ± 0.055.
